Target: the molecule itself
Experiment: crystal structure; dimeric HT cyt c552 without a His-tag obtained from E. coli by freeze-thaw, purified; sitting-drop vapor diffusion at room temperature; 1.8 Å

B1: Hydrogenobacter thermophilus cytochrome c552, wild type, without a His-tag (holo protein) (natural protein, UniProt P15452 19-98, looked up)
chain: NEQLAKQKGCMACHDLKAKKVGPAYADVAKKYAGRKDAVDYLAGKIKKGGSGVWGSVPMPPQNVTDAEAKQLAQWILSIK
modifications: heme c attached (holo protein)
- stoichiometry N: 2

Reference: PMC4738263 (Scientific Reports, 2016)
